In publication doi:10.1101/2022.08.26.505362:

Experiments:
[1] = target: fibrillin (molecule within bovine ciliary zonule microfibrils) (bovine (endogenous in ciliary zonule)) (UniProt P98133); assay: cryo-EM structure; conditions: scale: fibrillin monomers per microfibril repeat
[2] = target: fibrillin microfibrils purified from bovine ciliary zonules (bovine (endogenous in ciliary zonule)) (UniProt P98133); assay: STEM mass mapping; conditions: scale: molecules of LTBP-1 per microfibril repeat
fibrillin microfibrils purified from bovine ciliary zonules (bovine (endogenous in ciliary zonule)), sequence (P98133 25-2871): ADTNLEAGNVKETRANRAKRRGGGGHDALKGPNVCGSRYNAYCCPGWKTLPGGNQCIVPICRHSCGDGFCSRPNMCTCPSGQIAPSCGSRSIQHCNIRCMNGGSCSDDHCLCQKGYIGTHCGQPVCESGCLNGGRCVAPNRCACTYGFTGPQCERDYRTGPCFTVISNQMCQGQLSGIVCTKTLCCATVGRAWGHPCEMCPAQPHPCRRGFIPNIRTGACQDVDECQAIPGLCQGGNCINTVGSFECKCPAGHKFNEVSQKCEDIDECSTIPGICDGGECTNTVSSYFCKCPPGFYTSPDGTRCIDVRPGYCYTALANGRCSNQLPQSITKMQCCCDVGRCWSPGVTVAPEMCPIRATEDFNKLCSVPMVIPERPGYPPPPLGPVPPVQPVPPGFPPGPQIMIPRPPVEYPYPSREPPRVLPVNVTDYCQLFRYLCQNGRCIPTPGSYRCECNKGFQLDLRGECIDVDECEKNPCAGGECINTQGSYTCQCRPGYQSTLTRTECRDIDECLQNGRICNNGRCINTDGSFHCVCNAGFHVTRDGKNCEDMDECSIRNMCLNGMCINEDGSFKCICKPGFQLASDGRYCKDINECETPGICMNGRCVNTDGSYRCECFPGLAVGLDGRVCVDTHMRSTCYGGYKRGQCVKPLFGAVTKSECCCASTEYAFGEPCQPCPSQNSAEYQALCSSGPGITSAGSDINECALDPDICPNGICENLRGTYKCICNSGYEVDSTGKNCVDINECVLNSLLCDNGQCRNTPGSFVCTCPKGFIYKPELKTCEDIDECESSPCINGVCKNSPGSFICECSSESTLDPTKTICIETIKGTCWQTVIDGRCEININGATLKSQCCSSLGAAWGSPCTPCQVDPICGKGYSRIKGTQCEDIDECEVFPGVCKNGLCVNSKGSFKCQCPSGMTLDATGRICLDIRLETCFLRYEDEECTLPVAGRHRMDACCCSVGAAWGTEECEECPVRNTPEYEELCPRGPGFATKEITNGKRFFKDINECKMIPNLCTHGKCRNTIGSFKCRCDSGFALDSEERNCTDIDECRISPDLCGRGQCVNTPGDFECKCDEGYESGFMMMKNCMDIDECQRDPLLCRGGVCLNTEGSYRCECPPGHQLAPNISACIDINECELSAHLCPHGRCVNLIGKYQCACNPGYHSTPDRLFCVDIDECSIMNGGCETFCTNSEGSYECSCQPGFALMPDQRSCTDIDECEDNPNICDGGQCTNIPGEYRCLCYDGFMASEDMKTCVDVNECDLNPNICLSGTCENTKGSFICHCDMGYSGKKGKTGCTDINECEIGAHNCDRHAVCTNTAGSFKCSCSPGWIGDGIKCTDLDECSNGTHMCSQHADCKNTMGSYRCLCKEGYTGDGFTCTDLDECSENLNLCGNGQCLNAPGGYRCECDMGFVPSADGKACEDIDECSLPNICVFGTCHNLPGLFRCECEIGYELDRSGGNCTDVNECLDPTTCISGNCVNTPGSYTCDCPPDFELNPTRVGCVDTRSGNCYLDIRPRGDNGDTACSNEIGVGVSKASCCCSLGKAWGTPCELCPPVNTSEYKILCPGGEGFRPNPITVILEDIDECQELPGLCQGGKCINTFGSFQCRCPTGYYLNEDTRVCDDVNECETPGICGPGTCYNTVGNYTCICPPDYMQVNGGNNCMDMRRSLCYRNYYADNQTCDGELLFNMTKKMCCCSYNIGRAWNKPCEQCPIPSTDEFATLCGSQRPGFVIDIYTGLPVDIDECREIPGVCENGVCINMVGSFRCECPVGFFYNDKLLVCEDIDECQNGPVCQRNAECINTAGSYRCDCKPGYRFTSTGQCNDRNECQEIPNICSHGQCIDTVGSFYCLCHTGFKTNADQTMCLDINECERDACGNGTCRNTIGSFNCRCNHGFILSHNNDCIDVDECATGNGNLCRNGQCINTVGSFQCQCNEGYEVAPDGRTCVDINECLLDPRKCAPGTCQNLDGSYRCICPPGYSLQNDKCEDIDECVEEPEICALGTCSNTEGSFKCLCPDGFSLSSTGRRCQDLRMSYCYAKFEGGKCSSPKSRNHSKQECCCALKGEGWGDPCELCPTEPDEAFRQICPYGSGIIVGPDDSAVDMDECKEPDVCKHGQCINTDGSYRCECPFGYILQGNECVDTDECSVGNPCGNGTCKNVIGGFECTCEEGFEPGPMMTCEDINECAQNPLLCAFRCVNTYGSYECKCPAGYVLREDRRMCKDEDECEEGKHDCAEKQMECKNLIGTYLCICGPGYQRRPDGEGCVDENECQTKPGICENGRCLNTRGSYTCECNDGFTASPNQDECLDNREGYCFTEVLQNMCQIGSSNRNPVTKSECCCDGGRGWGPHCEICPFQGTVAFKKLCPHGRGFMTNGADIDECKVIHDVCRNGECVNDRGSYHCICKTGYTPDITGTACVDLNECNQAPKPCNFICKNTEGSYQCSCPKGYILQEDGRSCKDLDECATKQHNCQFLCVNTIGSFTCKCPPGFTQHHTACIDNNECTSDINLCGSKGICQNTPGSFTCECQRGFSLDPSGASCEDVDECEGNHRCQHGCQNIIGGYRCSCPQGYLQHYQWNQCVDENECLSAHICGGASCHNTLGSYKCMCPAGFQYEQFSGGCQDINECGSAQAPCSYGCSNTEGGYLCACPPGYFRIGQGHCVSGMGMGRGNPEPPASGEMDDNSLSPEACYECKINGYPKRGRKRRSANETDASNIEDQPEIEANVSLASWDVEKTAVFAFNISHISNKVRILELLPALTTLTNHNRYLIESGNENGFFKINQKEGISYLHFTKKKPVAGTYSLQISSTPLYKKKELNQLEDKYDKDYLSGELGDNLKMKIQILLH

fibrillin (molecule within bovine ciliary zonule microfibrils), sequence (P98133 25-2871): as above

Row | Substance | stoichiometry N [1] | stoichiometry N [2]
1 | fibrillin (molecule within bovine ciliary zonule microfibrils) (from UniProt P98133 25-2871) (natural protein) | 8 | –
2 | full-length LTBP-1 (latent TGFβ-binding protein-1) (from UniProt Q14766 24-1721) (natural protein) | – | 2
